According to patent publication US20210269525A1 (BIOCYTOGEN PHARMACEUTICALS BEIJING, published 2021):

T1: Cynomolgus CD3 epsilon Protein, His Tag (Acrobiosystems, Cat #CDE-05226) (cynomolgus (Macaca fascicularis), UniProt Q95LI5 22-117)
T1 construct: also called monkey CD3e; not shown: His tag
T1 sequence: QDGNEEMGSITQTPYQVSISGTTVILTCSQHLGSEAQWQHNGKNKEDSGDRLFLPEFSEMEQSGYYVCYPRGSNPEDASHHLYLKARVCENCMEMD


What was measured:
[1] = molecular target: T1, Cynomolgus CD3 epsilon Protein, His Tag …; assay: SPR (Biacore), cynomolgus CD3e His tag
Procedure: The binding affinity of the anti-hCD3e antibodies with monkey CD3e (Cynomolgus CD3 epsilon Protein (SEQ ID NO: 39 AA Gln 22-Asp 117), His Tag, Acrobiosystems, Cat #CDE-05226) were also measured using surface plasmon resonance (SPR) using Biacore (Biacore, INC, Piscataway N.J.) by the methods as described in the examples.

[2] = molecular target: T2, human CD3e (T-cell surface glycoprotein CD3 epsilon chain) (human, UniProt P07766 23-207); assay: flow cytometry, human PBMC, antibody 1 µg/mL, anti-human IgG Fc-Alexa Fluor647 (1:500), anti-hTcRβ-PerCP (1:30)
T2 construct: Target of the anti-hCD3e antibodies on human PBMC, Jurkat cells and cells expressing human CD3e; on T cells it is part of the CD3/TCR complex; also called hCD3e; CD3e on human PBMC
Procedure: (§1) PBMC cells were collected from a human subject. After being thawed, the cells were cultured for 3-4 hours. The medium was then discarded, and the cells were resuspended in phosphate-buffered saline (PBS). The cell concentration was then adjusted to 2×10⁶/25 μl PBS.
(§2) A 96-well plate was prepared. 25 ul of cell suspension was added to each well. […] The cells and the antibodies were incubated. After centrifuge, the residues were discarded. The samples were washed again. 25 ul of PBS was then added to each well to resuspend cells.
(§3) Anti-human IgG Fc-Alexa Fluror647 (1:500) and anit-hTcRβ PerCP (1:30) were then added to each well. The cells and the antibodies were incubated and then the cells were washed again by PBS. 300 ul of PBS was then added to each well to resuspend the cells. FACS was performed.

[3] = molecular target: T2, human CD3e (T-cell surface glycoprotein …); assay: flow cytometry, human PBMC, antibody 10 µg/mL, anti-human IgG Fc-Alexa Fluor647 (1:500), anti-hTcRβ-PerCP (1:30)
Procedure: as §1
A 96-well plate was prepared. 25 ul of cell suspension was added to each well. Anti-hCD3e antibodies with different combinations of humanized 1B1 heavy chain variants and humanized 1B1 light chain variants were diluted to 20 ug/ml (2×) in PBS, and were added to the 96-well plate. The cells and the antibodies were incubated. After centrifuge, the residues were discarded. The samples were washed again. 25 ul of PBS was then added to each well to resuspend cells.
as §3

[4] = molecular target: T3, Histidine-tagged human CD3e protein (human, UniProt P07766 23-126); assay: SPR (Biacore), human CD3e
T3 construct: also called hCD3e-His; not shown: His tag

[5] = molecular target: T2, human CD3e (T-cell surface glycoprotein …); assay: flow cytometry, human PBMC, antibody 0.1 µg/mL, anti-human IgG Fc-Alexa Fluor647 (1:500), anti-hTcRβ-PerCP (1:30)
Procedure: as §1, §2, §3

[6] = molecular target: T2, human CD3e (T-cell surface glycoprotein …); assay: cell-based or functional assay
[7] = molecular target: T4, monkey CD3e (Macaca fascicularis) on PBMC (Macaca fascicularis, UniProt Q95LI5 22-198); assay: flow cytometry, Macaca fascicularis PBMC, antibody concentration not given, anti-human IgG Fc-Alexa Fluor647 (1:500), anti-hTcRβ-PerCP (1:30)
T4 construct: Target on PBMC from Macaca fascicularis; also called mfCD3e; monkey PBMC
How it was run: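 Cynomolgus PBMC incubated with anti-hCD3 antibodies 15 min at 4° C, washed in PBS. Bound antibody detected with anti-human IgG Fc-Alexa Fluor647 (1:500) plus anti-hTcRβ-PerCP (1:30), 15 min at 4° C, then washed and analysed by flow cytometry.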

T4 sequence (Q95LI5 22-198 limits assumed): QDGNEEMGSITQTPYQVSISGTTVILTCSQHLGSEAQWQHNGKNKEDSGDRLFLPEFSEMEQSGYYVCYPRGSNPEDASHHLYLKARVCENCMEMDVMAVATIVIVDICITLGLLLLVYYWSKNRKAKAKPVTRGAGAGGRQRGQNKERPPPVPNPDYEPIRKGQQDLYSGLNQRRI

Binder	Kd [1] [nM]	koff [1] [s⁻¹]	kon [1] [M⁻¹ s⁻¹]	upper left quadrant, percent of cells AF647+ / hTcRβ-PerCP- [2] [%]	upper right quadrant, percent of cells AF647+ / hTcRβ-PerCP+ [2] [%]	upper left quadrant, percent of cells AF647+ / hTcRβ-PerCP- [3] [%]	upper right quadrant, percent of cells AF647+ / hTcRβ-PerCP+ [3] [%]	Kd [4] [nM]	koff [4] [s⁻¹]	kon [4] [M⁻¹ s⁻¹]	upper left quadrant, percent of cells AF647+ / hTcRβ-PerCP- [5] [%]	upper right quadrant, percent of cells AF647+ / hTcRβ-PerCP+ [5] [%]	EC50, luciferase of Jurkat-Luc-NFAT cells; antibody from supernatant [6] [µg/mL]	upper left quadrant, percent of cells AF647+ / hTcRβ-PerCP- [7] [%]	upper right quadrant, percent of cells AF647+ / hTcRβ-PerCP+ [7] [%]
1B1-H2K2-IgG1-LALA (antibody, V domains shown, Humanized; human IgG1 with LALA mutations; also called H2K2 (humanized 1B1)) VH: QVQLVQSGAEVKKPGASVKLSCKASGYTFTSYWMHWVRQAPGQGLEWIGNIYPDSGTTNYGEKFKTRVTLTVDTSTSTAYMELSSLRSEDTAVYYCTRDTSGQYYFDYWGQGTLVTVSS VL: DIVMTQSPDSLAVSAGERVTMNCKSSQSLLNSRTRKNYLAWYQHKPGQSPKLLIYWASTRESGVPDRFSGSGSGTDFTLTISSLQAEDVAVYYCVQSFSLRAFGGGTKVEIK	6.66	0.000665	99800	10.2	61	9.49	63.3	1.65	0.000881	535000	14.1	47.1	> 5.24	84.5	11.1
1B1-H4K3-IgG1-LALA (antibody, V domains shown, Humanized; human IgG1 with LALA mutations; also called H4K3 (humanized 1B1)) VH: QVQLVQSGAEVVKPGASVKLSCKASGYTFTSYWMHWVRQRHGQGLEWIGNIYPDSGTTNYGEKFKTRGTLTVDTSTSTAYMELSSLRSEDTAVYYCTRDTSGQYYFDYWGQGTLVTVSS VL: DIVMTQSPDSLAVSAGERVTMNCKSSQSLLNSRTRKNYLAWYQHKPGQSPKLLIYWASTRESGVPDRFSGSGSGTDFTLTISSVQAEDVAVYYCVQSFSLRAFGGGTKLEIK				10.2	61.9	10.7	62.4	1.16	0.000583	502000	11.9	54.7	> 4.54	87.1	10.1
1B1-H4K2-IgG1-LALA (antibody, V domains shown, Humanized; human IgG1 with LALA mutations; also called H4K2 (humanized 1B1)) VH: QVQLVQSGAEVVKPGASVKLSCKASGYTFTSYWMHWVRQRHGQGLEWIGNIYPDSGTTNYGEKFKTRGTLTVDTSTSTAYMELSSLRSEDTAVYYCTRDTSGQYYFDYWGQGTLVTVSS VL: DIVMTQSPDSLAVSAGERVTMNCKSSQSLLNSRTRKNYLAWYQHKPGQSPKLLIYWASTRESGVPDRFSGSGSGTDFTLTISSLQAEDVAVYYCVQSFSLRAFGGGTKVEIK				10.4	61.7	11	59.7	0.959	0.000614	640000	12.6	54	> 3	73.2	24.4
1B1-H2K1-IgG1-LALA (antibody, V domains shown, Humanized; human IgG1 with LALA mutations; also called H2K1 (humanized 1B1)) VH: QVQLVQSGAEVKKPGASVKLSCKASGYTFTSYWMHWVRQAPGQGLEWIGNIYPDSGTTNYGEKFKTRVTLTVDTSTSTAYMELSSLRSEDTAVYYCTRDTSGQYYFDYWGQGTLVTVSS VL: DIVMTQSPDSLAVSAGERATMNCKSSQSLLNSRTRKNYLAWYQHKPGQSPKLLIYWASTRESGVPDRFSGSGSGTDFTLTISSLQAEDVAVYYCVQSFSLRAFGGGTKVEIK	7.03	0.000999	142000	10.8	61.5	8.53	65.4	1.49	0.000862	579000	9.82	59.2	> 2.79	71	25.6
1B1-H1K1-IgG1-LALA (antibody, V domains shown, Humanized; human IgG1 with LALA mutations; also called H1K1 (humanized 1B1)) VH: QVQLVQSGAEVKKPGASVKVSCKASGYTFTSYWMHWVRQAPGQGLEWIGNIYPDSGTTNYGEKFKTRVTLTVDTSTSTAYMELSSLRSEDTAVYYCTRDTSGQYYFDYWGQGTLVTVSS VL: DIVMTQSPDSLAVSAGERATMNCKSSQSLLNSRTRKNYLAWYQHKPGQSPKLLIYWASTRESGVPDRFSGSGSGTDFTLTISSLQAEDVAVYYCVQSFSLRAFGGGTKVEIK	9.51	0.000869	91400	12	58	8.68	61.6	1.42	0.000621	438000	11.9	54.8	1.42	69.5	26.2
1B1-H1K3-IgG1-LALA (antibody, V domains shown, Humanized; human IgG1 with LALA mutations; also called H1K3 (humanized 1B1)) VH: QVQLVQSGAEVKKPGASVKVSCKASGYTFTSYWMHWVRQAPGQGLEWIGNIYPDSGTTNYGEKFKTRVTLTVDTSTSTAYMELSSLRSEDTAVYYCTRDTSGQYYFDYWGQGTLVTVSS VL: DIVMTQSPDSLAVSAGERVTMNCKSSQSLLNSRTRKNYLAWYQHKPGQSPKLLIYWASTRESGVPDRFSGSGSGTDFTLTISSVQAEDVAVYYCVQSFSLRAFGGGTKLEIK	4.39	0.000739	169000	11	58.6	10.5	60	3.28	0.00051	155000	13.9	50	> 6.94	83.3	13.6
